Assay results taken from IntAct's records for PubMed 35512704.

B1: Mothers against decapentaplegic homolog 4 (Homo sapiens), Q13485 (parent)
chain: MDNMSITNTPTSNDACLSIVHSLMCHRQGGESETFAKRAIESLVKKLKEKKDELDSLITAITTNGAHPSKCVTIQRTLDGRLQVAGRKGFPHVIYARLWRWPDLHKNELKHVKYCQYAFDLKCDSVCVNPYHYERVVSPGIDLSGLTLQSNAPSSMMVKDEYVHDFEGQPSLSTEGHSIQTIQHPPSNRASTETYSTPALLAPSESNATSTANFPNIPVASTSQPASILGGSHSEGLLQIASGPQPGQQQNGFTGQPATYHHNSTTTWTGSRTAPYTPNLPHHQNGHLQHHPPMPPHPGHYWPVHNELAFQPPISNHPAPEYWCSIAYFEMDVQVGETFKVPSSCPIVTVDGYVDPSGGDRFCLGQLSNVHRTEAIERARLHIGKGVQLECKGEGDVWVRCLSDHAVFVQSYYLDREAGRAPGDAVHKIYPSAYIKVFDLRQCHRQMQQQAATAQAAAAAQAAAVAGNIPGPGSVGGIAPAISLSAAAGIGVDDLRRLCILRMSFVKGWGPDYPRQSIKETPCWIEIHLHRALQLLDEVLHTMPIADPQPLD

Variants of: B1
Conditions: with tshr_human TSHR

Variant | effect of a mutation on the interaction
G386D | increasing interaction strength

Variants of: B1
Conditions: with smad2_human SMAD2, Q15796
Chain of smad2_human SMAD2, Q15796 (Q15796 whole entry): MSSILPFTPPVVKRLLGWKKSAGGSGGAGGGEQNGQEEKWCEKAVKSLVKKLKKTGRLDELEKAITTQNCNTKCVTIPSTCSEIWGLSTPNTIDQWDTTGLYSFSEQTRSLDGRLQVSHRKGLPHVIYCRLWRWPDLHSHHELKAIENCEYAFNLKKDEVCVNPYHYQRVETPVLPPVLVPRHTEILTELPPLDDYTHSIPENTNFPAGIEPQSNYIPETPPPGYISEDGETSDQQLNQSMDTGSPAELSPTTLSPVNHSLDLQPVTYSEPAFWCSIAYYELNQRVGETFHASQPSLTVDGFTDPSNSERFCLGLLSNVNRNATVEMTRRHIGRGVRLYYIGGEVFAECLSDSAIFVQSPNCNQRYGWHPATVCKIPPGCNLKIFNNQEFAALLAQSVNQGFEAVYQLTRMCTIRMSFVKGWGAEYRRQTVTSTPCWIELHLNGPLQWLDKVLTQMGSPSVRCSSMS

Variant | effect of a mutation on the interaction
G386D | disrupting interaction strength

Variants of: B1
Conditions: with smad3_human SMAD3, P84022
Chain of smad3_human SMAD3, P84022 (P84022 whole entry, looked up): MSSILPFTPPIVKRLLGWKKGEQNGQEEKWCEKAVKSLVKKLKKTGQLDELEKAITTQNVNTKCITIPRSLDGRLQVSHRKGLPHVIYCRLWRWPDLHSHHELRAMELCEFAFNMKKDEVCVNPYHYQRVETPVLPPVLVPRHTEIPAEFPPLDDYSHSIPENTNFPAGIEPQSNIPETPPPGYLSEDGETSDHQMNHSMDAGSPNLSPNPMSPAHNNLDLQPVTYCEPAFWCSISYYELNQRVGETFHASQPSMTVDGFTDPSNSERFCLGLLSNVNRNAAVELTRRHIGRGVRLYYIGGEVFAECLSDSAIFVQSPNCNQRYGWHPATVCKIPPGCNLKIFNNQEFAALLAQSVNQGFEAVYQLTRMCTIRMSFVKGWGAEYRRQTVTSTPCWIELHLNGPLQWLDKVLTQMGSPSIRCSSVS

Variant | effect of a mutation on the interaction
G386D | decreasing interaction strength

Variants of: B1
Conditions: with cdk6_human CDK6, Q00534
Chain of cdk6_human CDK6, Q00534 (Q00534 whole entry): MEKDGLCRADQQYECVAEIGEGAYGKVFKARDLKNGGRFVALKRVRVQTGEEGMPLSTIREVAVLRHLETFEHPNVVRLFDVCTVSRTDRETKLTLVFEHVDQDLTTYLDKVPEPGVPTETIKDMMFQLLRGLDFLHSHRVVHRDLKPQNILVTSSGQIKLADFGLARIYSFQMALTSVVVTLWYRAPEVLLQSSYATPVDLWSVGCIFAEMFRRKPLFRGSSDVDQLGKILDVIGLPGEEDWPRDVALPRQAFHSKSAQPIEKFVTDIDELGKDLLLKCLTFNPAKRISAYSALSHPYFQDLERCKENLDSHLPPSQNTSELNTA

Variant | effect of a mutation on the interaction
G386D | decreasing interaction strength

Variants of: B1
Conditions: with ccnd1_human CCND1, P24385
Chain of ccnd1_human CCND1, P24385 (P24385 whole entry): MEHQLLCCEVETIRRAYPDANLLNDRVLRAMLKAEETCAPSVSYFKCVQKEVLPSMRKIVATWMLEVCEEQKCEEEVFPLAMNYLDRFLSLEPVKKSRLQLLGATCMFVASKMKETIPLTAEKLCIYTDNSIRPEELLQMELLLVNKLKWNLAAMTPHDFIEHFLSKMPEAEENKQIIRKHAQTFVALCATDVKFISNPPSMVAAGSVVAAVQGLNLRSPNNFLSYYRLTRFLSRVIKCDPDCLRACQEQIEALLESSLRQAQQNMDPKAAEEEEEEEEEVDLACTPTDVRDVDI

Variant | effect of a mutation on the interaction
G386D | decreasing interaction strength

Variants of: B1
Conditions: with akt1_human AKT1, P31749
Chain of akt1_human AKT1, P31749 (P31749 whole entry): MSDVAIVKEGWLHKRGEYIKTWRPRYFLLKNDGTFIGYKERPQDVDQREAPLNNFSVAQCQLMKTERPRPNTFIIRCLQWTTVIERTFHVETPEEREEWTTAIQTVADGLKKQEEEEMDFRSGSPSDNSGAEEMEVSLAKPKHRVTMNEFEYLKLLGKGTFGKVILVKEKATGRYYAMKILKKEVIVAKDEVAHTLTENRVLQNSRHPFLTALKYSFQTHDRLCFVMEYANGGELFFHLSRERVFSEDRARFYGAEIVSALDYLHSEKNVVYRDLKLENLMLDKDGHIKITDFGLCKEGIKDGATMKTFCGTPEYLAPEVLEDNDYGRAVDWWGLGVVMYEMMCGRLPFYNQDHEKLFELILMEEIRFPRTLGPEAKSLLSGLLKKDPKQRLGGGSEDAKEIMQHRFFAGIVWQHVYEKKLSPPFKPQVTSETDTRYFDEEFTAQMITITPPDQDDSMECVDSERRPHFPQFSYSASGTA

Variant | effect of a mutation on the interaction
G386D | decreasing interaction strength

Variants of: B1
Conditions: with pk3cb_human PIK3CB

Variant | effect of a mutation on the interaction
G386D | decreasing interaction strength

Variants of: B1
Conditions: with jak1_human JAK1, P23458
Chain of jak1_human JAK1, P23458 (P23458 whole entry): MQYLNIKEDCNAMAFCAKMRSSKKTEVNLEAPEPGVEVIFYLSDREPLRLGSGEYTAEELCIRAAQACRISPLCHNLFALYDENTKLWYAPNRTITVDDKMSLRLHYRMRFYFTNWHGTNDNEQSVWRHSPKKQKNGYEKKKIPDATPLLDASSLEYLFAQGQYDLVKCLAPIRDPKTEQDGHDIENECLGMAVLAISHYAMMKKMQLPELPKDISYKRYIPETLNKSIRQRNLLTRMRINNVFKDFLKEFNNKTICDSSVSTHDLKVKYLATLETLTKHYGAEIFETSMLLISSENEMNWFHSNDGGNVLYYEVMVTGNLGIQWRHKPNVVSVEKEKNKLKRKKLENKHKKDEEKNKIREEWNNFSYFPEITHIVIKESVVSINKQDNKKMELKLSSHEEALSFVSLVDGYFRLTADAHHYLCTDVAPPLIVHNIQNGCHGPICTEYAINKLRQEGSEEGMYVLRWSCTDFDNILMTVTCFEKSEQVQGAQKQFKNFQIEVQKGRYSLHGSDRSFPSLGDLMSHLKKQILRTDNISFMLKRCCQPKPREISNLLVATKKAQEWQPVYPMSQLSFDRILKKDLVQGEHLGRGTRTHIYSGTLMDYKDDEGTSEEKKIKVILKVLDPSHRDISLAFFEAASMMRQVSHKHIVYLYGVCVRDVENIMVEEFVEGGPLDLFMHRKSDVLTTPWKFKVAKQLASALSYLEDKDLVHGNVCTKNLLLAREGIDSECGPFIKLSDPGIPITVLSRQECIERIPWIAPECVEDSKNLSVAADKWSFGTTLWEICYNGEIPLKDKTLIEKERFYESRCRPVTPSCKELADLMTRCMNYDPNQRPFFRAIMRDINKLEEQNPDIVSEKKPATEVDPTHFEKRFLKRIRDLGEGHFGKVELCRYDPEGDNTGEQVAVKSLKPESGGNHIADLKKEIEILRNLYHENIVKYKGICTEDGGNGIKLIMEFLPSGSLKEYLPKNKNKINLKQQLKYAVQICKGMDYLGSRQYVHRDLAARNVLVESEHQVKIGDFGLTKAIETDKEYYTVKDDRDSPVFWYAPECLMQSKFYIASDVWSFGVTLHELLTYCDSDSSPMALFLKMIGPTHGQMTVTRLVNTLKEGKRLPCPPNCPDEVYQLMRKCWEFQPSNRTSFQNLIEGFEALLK

Variant | effect of a mutation on the interaction
G386D | decreasing interaction strength

Variants of: B1
Conditions: with jak3_human JAK3, P52333
Chain of jak3_human JAK3, P52333 (P52333 whole entry): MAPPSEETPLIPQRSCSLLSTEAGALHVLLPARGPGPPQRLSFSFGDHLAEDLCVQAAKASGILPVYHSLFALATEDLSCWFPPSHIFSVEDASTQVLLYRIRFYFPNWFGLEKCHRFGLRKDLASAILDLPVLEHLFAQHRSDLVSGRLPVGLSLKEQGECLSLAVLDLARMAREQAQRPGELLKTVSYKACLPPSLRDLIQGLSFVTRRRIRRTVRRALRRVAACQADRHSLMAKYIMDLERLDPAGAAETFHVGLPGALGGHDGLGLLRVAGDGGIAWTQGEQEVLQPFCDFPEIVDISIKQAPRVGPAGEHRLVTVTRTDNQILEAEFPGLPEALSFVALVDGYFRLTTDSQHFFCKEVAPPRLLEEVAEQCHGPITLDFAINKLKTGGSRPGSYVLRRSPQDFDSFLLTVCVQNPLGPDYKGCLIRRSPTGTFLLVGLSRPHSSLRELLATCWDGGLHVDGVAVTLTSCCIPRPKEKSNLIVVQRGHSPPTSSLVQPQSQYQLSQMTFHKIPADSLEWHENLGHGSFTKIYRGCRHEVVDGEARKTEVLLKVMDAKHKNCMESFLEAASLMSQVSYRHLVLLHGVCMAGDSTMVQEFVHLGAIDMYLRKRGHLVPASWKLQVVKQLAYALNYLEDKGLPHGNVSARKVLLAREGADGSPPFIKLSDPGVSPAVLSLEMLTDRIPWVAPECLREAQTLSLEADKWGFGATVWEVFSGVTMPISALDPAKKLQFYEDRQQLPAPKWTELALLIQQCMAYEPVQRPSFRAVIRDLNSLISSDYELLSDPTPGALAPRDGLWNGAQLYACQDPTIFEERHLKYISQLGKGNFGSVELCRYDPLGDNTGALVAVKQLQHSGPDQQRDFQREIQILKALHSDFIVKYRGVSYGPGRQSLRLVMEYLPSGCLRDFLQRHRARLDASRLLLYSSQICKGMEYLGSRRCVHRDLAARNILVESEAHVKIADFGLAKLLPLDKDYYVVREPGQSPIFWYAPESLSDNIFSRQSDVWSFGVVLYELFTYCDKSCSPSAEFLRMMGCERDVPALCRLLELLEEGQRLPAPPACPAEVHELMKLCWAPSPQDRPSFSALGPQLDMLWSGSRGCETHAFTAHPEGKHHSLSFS

Variant | effect of a mutation on the interaction
G386D | decreasing interaction strength

Variants of: B1
Conditions: with baba2_human BABAM2, Q9NXR7
Chain of baba2_human BABAM2, Q9NXR7 (Q9NXR7 whole entry): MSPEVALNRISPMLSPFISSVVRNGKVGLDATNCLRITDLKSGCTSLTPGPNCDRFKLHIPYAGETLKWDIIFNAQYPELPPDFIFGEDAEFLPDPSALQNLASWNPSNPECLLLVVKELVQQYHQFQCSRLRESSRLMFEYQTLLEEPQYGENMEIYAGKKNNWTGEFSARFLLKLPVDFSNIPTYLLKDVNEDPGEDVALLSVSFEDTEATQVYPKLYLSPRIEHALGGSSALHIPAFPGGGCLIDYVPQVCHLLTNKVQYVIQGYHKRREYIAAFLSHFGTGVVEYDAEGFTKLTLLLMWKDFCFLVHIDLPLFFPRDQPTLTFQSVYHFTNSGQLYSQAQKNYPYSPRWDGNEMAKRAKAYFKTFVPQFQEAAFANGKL

Variant | effect of a mutation on the interaction
G386D | increasing interaction strength
